US20050287148A1
Each block holds one molecule with its values, some of them ahead of it.

What was measured:
the best Ab2 = assay: unlabeled 14G2a competing with plate-bound 14G2a for 125I-labeled Ab2
[1] = biological target: monoclonal anti-GD2 antibody 14G2a; assay: competition RIA, 5 µl Ab2 hybridoma culture supernatant, 125I-14G2a on GD2-positive M21/P6 cells
[2] = biological target: monoclonal anti-GD2 antibody 14G2a; assay: competition assay, Ab2 against 14G2a binding to GD2-expressing M21/P6 cells
[3] = biological target: monoclonal anti-GD2 antibody 14G2a; assay: competition RIA, Ab2 mixed with 125I-14G2a, M21/P6 cell monolayer

% inhibition (the best Ab2): > 90%
Molecule: monoclonal anti-GD2 antibody 14G2a

% inhibition of binding of radiolabeled 14G2a to M21/P6 cells [1]: > 70% | % inhibition of binding of 14G2a to M21/P6 cells [2]: > 75% | lowest amount that inhibits 14G2a binding to GD2 expressing cells [3]: 25 ng
B1: monoclonal anti-idiotype antibody 1A7 (antibody, V domains shown)
VH: QVQVKESGPFLVPPSQSLSITCTVSGFSLTTYGVSWIRQPPGKGLEWLGAIWGDGTTNYHSALISRLSISKDNSKSQVFLKLNSLQTDDTATYYCAKLGNYDALDYWGQGTSVTVSS
VL: DVFMTQTPLSLPVSLGDQASISCRSSQSIVHSNGNTYLEWYLQKPGQSPNLLIYFVSNRFSGVPDRFSGSGSGTDFTLKISRVEAEDLGVYYCFQGSHVPWTFGGGTKLEIKR
